Measured values reported in paper PMC7618045, “Outer membrane utilisomes mediate oligosaccharide uptake in gut Bacteroidetes” (Nature, 2023).

B1: SusC^lev (natural protein, B. thetaiotaomicron, UniProt Q8A6W3 26-1041, looked up)
chain: GQNITVKGNVTSKTDGQPIIGASVVETTATTNGTITDFDGNFTLSVPVNSTLKITYIGYKPVTVKAAAIVNVLLEEDTQMVDEVVVTGYTTQRKADLTGAVSVVKVDEIQKQGENNPVKALQGRVPGMNITADGNPSGSATVRIRGIGTLNNNDPLYIIDGVPTKAGMHELNGNDIESIQVLKDAASASIYGSRAANGVIIITTKQGKKGQIKINFDASVSASMYQSKMNVLNTEQYGRAMWQAYVNDGENPNGNALGYAYNWGYNADGNPVLYGMTLSKYLDSKNTMPVADTDWFDEITRTGVIQQYNLSVSNGSEKGSSFFSLGYYKNLGVIKDTDFDRFSARMNSDYKLIDDILTIGQHFTLNRTSEVQAPGGIIETALDIPSAIPVYASDGSWGGPVGGWPDRRNPRAVLEYNKDNRYTYWRMFGDAYVNLTPFKGFNLRSTFGLDYANKQARYFTYPYQEGTQTNNGKSAVEAKQEHWTKWMWNAIATYQLEVGKHRGDVMIGMELNREDDSHFSGYKEDFSILTPDYMWPDAGSGTAQAYGAGEGYSLVSFFGKMNYSYADRYLLSLTLRRDGSSRFGKNHRYATFPSVSLGWRITQENFMKELTWLDDLKLRASWGQTGNQEISNLARYTIYAPNYGTTDSFGGQSYGTAYDITGSNGGGVLPSGFKRNQIGNDNIKWETTTQTNVGIDFSLFKQSLYGSLEYYYKKATDILTEMAGVGVLGEGGSRWINSGAMKNQGFEFNLGYRNKTAFGLTYDLNGNISTYRNEILELPETVAANGKFGGNGVKSVVGHTYGAQVGYIADGIFKSQDEVDNHATQEGAAVGRIRYRDIDHNGVIDERDQNWIYDPTPSFSYGLNIYLEYKNFDLTMFWQGVQGVDIISDVKKKSDFWSASNVGFLNKGTRLLNAWSPTNPNSDIPALTRSDTNNEQRVSTYFVENGSFLKLRNIQLGYTVPAVISKKMRMDRLRFYCSAQNLLTIKSKNFTGEDPENPNFSYPIPVNITFGLNIGF
notes: SusC^lev, the TonB-dependent outer membrane transporter (SusC) of the levan PUL of B. thetaiotaomicron; Two copies stand in the utilisome (SusC2D2 core); written here without a tag; also called levan SusC; source: endogenous, B. thetaiotaomicron grown on fructose; co-purified from detergent-solubilised membranes (LDAO sample; DDM sample: Ni2+ column, SEC)

Legend:
[1] = target: SusC^dex (B. thetaiotaomicron); assay: cryo-EM structure; dextran utilisome (Bt3087-Bt3090), 0.05 mg/ml in 10 mM HEPES, 100 mM NaCl, pH 7.5, 0.03% DDM; heptamers, hexamers and pentamers; 3.1 Å consensus; AlphaFold2 models of SusD^dex, GH^dex and SGBP^dex docked into the map
[2] = target: the molecule itself; assay: cryo-EM structure; apo (substrate-free) levan utilisome, 3 mg/ml in 10 mM HEPES pH 7.5, 100 mM NaCl, 0.03% DDM; ~6 Å classes, 3.5 Å focused C2 refinement without SusD

Row | Molecule | stoichiometry N [1] | stoichiometry N [2]
1 | SusC^dex (natural protein) | 2 | 
2 | B1 |  | 2
